In patent publication US20240116985A1 (published 2024):
Starred links: 1 amine or outer side, 2 acyl side, 3 side chain; linkers in the order of their positions; H or OH if unused. Positions of bridges follow the written chain, without caps; N, C: chain ends. Non-standard residues stand in square brackets, D forms with d. Primed or numbered codes have the meaning given here. B5(15) = 2-amino-2-(pent-4-en-1-yl)hept-6-enoic acid (2,2-bis(4-pentenyl)glycine), stitching residue bearing two staples, C=CCCCC(CCCC=C)(N[*:1])C(=O)[*:2]; PyrS2″ = (S)-3-amino-1-((pent-4-en-1-yloxy)carbonyl)pyrrolidine-3-carboxylic acid (stapling residue), C=CCCCOC(=O)N1CC[C@@](N[*:1])(C(=O)[*:2])C1; B5(16) = 2-amino-2-(pent-4-en-1-yl)hept-6-enoic acid = 2,2-bis(4-pentenyl)glycine (stitching residue), C=CCCCC(CCCC=C)(N[*:1])C(=O)[*:2]; B5(4) = 2,2-bis(4-pentenyl)glycine = 2-amino-2-(pent-4-en-1-yl)hept-6-enoic acid (stitching residue), C=CCCCC(CCCC=C)(N[*:1])C(=O)[*:2]; B5(5) = 2,2-bis(4-pentenyl)glycine, 2-amino-2-(pent-4-en-1-yl)hept-6-enoic acid (stitching residue), C=CCCCC(CCCC=C)(N[*:1])C(=O)[*:2]; PyrS2 = (S)-3-amino-1-((pent-4-en-1-yloxy)carbonyl)pyrrolidine-3-carboxylic acid, C=CCCCOC(=O)N1CC[C@@](N[*:1])(C(=O)[*:2])C1; Phe(2-Cl) = N[C@@H](Cc1ccccc1Cl)C(=O)O; Bta = N[C@@H](Cc1csc2ccccc12)C(=O)O; αAllylPro = C=CC[C@@]1(C(=O)O)CCCN1; S8 = C=CCCCCCC[C@](C)(N)C(=O)O; hSer = N[C@@H](CCO)C(=O)O

T1: B-cat-Halo (beta-catenin HaloTag NanoBRET construct expressed in HEK293 cells) (UniProt P35222 1-781, HaloTag NanoBRET 618 Ligand bound to the HaloTag)
T1 sequence (looked up): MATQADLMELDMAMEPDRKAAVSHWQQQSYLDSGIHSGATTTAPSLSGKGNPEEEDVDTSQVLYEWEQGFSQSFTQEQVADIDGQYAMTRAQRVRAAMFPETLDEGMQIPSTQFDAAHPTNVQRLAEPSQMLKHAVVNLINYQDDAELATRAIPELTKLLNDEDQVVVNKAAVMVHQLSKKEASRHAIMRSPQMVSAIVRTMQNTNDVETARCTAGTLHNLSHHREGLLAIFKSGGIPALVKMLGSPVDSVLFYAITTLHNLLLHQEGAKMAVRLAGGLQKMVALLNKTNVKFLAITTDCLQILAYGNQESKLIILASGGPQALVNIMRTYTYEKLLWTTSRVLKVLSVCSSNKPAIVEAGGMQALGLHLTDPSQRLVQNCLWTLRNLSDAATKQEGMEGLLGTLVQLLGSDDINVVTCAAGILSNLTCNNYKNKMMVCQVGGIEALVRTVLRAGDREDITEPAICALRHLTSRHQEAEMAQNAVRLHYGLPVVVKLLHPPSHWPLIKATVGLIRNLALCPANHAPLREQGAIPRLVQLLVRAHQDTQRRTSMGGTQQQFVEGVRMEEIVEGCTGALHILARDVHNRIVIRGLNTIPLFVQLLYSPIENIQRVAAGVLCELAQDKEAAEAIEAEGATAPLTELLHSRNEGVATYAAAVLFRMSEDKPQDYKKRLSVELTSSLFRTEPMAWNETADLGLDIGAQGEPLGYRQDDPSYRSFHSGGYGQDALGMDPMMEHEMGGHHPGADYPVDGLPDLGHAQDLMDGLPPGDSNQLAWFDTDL

T2: B-cat-Halo (UniProt P35222 1-781)
T2 sequence (looked up): T1 sequence (looked up)

T3: full-length beta-Catenin (Uniprot ID P35222) (Homo sapiens (Human), UniProt P35222 2-781)
T3 construct: The assay protocols say only 'full-length'; No tag is stated, although the AlphaScreen kit is a Histidine (Nickel Chelate) kit; also called B-Catenin; bCat
T3 sequence: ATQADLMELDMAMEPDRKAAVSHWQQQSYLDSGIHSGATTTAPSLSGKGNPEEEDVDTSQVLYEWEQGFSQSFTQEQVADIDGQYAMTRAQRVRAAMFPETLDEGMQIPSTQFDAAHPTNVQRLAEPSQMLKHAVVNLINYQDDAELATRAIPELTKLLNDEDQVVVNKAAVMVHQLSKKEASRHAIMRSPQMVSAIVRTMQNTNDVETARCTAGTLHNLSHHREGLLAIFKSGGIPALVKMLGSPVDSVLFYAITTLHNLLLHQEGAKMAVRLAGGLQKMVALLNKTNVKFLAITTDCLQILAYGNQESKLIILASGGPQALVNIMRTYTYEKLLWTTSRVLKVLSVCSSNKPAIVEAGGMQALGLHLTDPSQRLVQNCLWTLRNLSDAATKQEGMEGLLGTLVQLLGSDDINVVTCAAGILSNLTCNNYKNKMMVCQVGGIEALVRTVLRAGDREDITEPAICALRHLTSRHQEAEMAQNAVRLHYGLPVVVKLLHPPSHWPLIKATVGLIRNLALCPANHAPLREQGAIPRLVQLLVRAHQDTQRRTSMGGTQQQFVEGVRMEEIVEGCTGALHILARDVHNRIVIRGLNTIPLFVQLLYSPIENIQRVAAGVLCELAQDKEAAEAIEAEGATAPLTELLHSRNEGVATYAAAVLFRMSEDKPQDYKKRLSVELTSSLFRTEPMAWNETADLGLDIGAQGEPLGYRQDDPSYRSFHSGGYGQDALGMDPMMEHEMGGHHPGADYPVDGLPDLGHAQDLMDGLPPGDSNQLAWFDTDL

T4: full-length beta-Catenin (Uniprot ID P35222) (Homo sapiens (Human), UniProt P35222 1-781)
T4 construct: Any tags on the recombinant protein are not described for the FP assay; also called bCat; B-Catenin
T4 sequence: T1 sequence (looked up)

T5: full-length beta-Catenin (Uniprot ID P35222) (Homo sapiens (Human), UniProt P35222 1-781)
T5 construct: Tags are not described; Also used here as the target of the DLD1 TCF reporter read-out (endogenous beta-catenin in DLD1 cells); also called bCat; B-Catenin
T5 sequence: T1 sequence (looked up)

B1: I-1527: Ac-PL3-Asp-Ser-B5-Asp-Glu-Ala-Ala-Phe-Gln-S8-Phe-BztA-Gln-NH2 (peptide)
peptide: Ac-[αAllylPro]DS[B5(5)]DEAAFQ[S8]F[Bta]Q-NH2
modifications: staple 1-4, 4-11
notes: Stapled peptide composition; It has the same description as I-1526 and is the staple isomer composition of the later eluting HPLC peak
B2: I-1526: Ac-PL3-Asp-Ser-B5-Asp-Glu-Ala-Ala-Phe-Gln-S8-Phe-BztA-Gln-NH2 (peptide)
peptide: Ac-[αAllylPro]DS[B5(5)]DEAAFQ[S8]F[Bta]Q-NH2
modifications: staple 1-4, 4-11; also: staple isomer, earlier eluting HPLC peak
notes: Stapled peptide composition; It has the same description as I-1527 and is the staple isomer composition of the earlier eluting HPLC peak
B3: I-1530: Ac-PL3-Asp-Ser-B5-Asp-Glu-Ala-Ala-Phe-Hse-S8-Phe-BztA-Gln-NH2 (peptide)
peptide: Ac-[αAllylPro]DS[B5(15)]DEAAF[hSer][S8]F[Bta]Q-NH2
modifications: staple 1-4, 4-11; not fully specified; printed as Ac-PL3-Asp-Ser-B5-Asp-Glu-Ala-Ala-Phe-Hse-S8-Phe-BztA-Gln-NH2
notes: Stapled peptide composition; It has the same description as I-1529 and is the staple isomer composition of the later eluting HPLC peak
B4: I-1528: Ac-PL3-Asp-Ser-B5-Asp-Glu-Ala-Ala-Phe-Leu-S8-Phe-BztA-Gln-NH2 (peptide)
peptide: Ac-[αAllylPro]DS[B5(5)]DEAAFL[S8]F[Bta]Q-NH2
modifications: staple 1-4, 4-11
notes: Stapled peptide composition; Staple olefins are retained
B5: I-1529: Ac-PL3-Asp-Ser-B5-Asp-Glu-Ala-Ala-Phe-Hse-S8-Phe-BztA-Gln-NH2 (peptide)
peptide: Ac-[αAllylPro]DS[B5(15)]DEAAF[hSer][S8]F[Bta]Q-NH2
modifications: staple 1-4, 4-11; not fully specified; printed as Ac-PL3-Asp-Ser-B5-Asp-Glu-Ala-Ala-Phe-Hse-S8-Phe-BztA-Gln-NH2
notes: Stapled peptide composition
B6: I-1531: Ac-PL3-Asp-Asn-B5-Asp-Glu-Ala-Ala-Phe-Gln-S8-Phe-BztA-Gln-NH2 (peptide)
peptide: XDNXDEAAFQXFXQ
modifications: not fully specified; N-terminal Ac; C-terminal NH2; PL3 at 1, B5 at 4 and S8 at 11 stapled by olefin metathesis (PL3-B5 and B5-S8); BztA at 13
notes: Stapled peptide composition; It has the same description as I-1532 and is the staple isomer composition of the earlier eluting HPLC peak
B7: I-1041 (peptide)
peptide: Ac-[αAllylPro]DF[B5(16)]DDAAFN[PyrS2″][Phe(2-Cl)][Bta]Q-NH2
modifications: staple 1-4, 4-11
notes: also called Ac-PL3-Asp-Phe-B5-Asp-Asp-Ala-Ala-Phe-Asn-PyrS2-2C1F-BztA-Gln-NH2
B8: I-1051 (peptide)
peptide: Ac-[αAllylPro]DF[B5(4)]DDAAFS[PyrS2][Phe(2-Cl)][Bta]S-NH2
modifications: staple 1-4, 4-11
notes: also called Ac-PL3-Asp-Phe-B5-Asp-Asp-Ala-Ala-Phe-Ser-PyrS2-2C1F-BztA-Ser-NH2
B9: I-1045 (peptide)
peptide: Ac-[αAllylPro]DF[B5(16)]DDAAFS[PyrS2″][Phe(2-Cl)][Bta]Q-NH2
modifications: staple 1-4, 4-11
notes: also called Ac-PL3-Asp-Phe-B5-Asp-Asp-Ala-Ala-Phe-Ser-PyrS2-2C1F-BztA-Gln-NH2
B10: I-1047 (peptide)
peptide: Ac-[αAllylPro]DF[B5(16)]DDAAFN[PyrS2″][Phe(2-Cl)][Bta]S-NH2
modifications: staple 1-4, 4-11
notes: also called Ac-PL3-Asp-Phe-B5-Asp-Asp-Ala-Ala-Phe-Asn-PyrS2-2C1F-BztA-Ser-NH2
B11: I-1043 (peptide)
peptide: Ac-[αAllylPro]DF[B5(16)]DDAAFT[PyrS2″][Phe(2-Cl)][Bta]Q-NH2
modifications: staple 1-4, 4-11
notes: also called Ac-PL3-Asp-Phe-B5-Asp-Asp-Ala-Ala-Phe-Thr-PyrS2-2C1F-BztA-Gln-NH2
B12: I-355 (peptide)
peptide: XDAXDDAAFVXAWQ
modifications: not fully specified; N-terminal Ac; C-terminal NH2; PL3 at 1, B5 at 4, S8 at 11 (stapled 1-4 and 4-11)
notes: Stapled peptide composition; Earlier-eluting isomer composition; also called Ac-PL3-Asp-Ala-B5-Asp-Asp-Ala-Ala-Phe-Val-S8-Ala-Trp-Gln-NH2
B13: I-358 (peptide)
peptide: XDAXDDAAFVXFAQ
modifications: not fully specified; N-terminal Ac; C-terminal NH2; PL3 at 1, B5 at 4, S8 at 11 (stapled 1-4 and 4-11)
notes: Stapled peptide composition; Later-eluting isomer composition; also called Ac-PL3-Asp-Ala-B5-Asp-Asp-Ala-Ala-Phe-Val-S8-Phe-Ala-Gln-NH2

target: T1, B-cat-Halo (beta-catenin HaloTag …); experiment: cell-based or functional assay

NanoBRET Abs IC50	Binder
30.3 µM	B1
> 20 µM	B2
36.9 µM	B3
31.4 µM	B4
> 20 µM	B5
> 20 µM	B6

target: T2, B-cat-Halo; experiment: cell-based or functional assay

NanoBRET Abs IC50	Binder
> 20 µM	B7
> 20 µM	B8
23.9 µM	B9
28.4 µM	B10
> 20 µM	B11

target: T3, full-length beta-Catenin (Uniprot ID …); experiment: AlphaScreen competition; peptide titrated against full-length beta-catenin + biotin-TCF4(10-53)
Description: Equal volume of the titrated peptide was added to the plate and incubated for 15 minutes at 20° C. Then 4 uL of donor and 4 uL acceptor beads at 10 ug/mL were added to the plate, for a 16 uL reaction pool and protected from light for 60 minutes at 20° C. prior to read. Reads were performed on a CLARIOstar plate reader (BMG Labtech) in duplicate, and data were fitted to a 1:1 binding model with hill slope using an in-house script. All provided concentrations are final concentrations.

EC50	Binder
10 µM	B12
10 µM	B13

target: T4, full-length beta-Catenin (Uniprot ID …); experiment: fluorescence polarization competition; displacement of 5FAM-TCF4(10-53) from full-length beta-catenin
Description: (§1) The plate was incubated protected from light for 60 minutes at 20° C. prior to read. Reads were performed on a CLARIOstar plate reader (BMG Labtech) in duplicate, and data were fitted to a 1:1 binding model with hill slope using an in-house script. All provided concentrations are final concentrations.

IC50	Binder
0.036 µM	B1
0.084 µM	B2
0.061 µM	B3
0.102 µM	B4
0.126 µM	B5
0.084 µM	B6

target: T5, full-length beta-Catenin (Uniprot ID …); experiment: fluorescence polarization competition; full-length beta-catenin with 5FAM-TCF4(10-53) probe, peptide titrated
Description: as §1

IC50	Binder
0.008 µM	B7
0.014 µM	B8
0.005 µM	B9
0.005 µM	B10
0.012 µM	B11

target: T3, full-length beta-Catenin (Uniprot ID …); experiment: fluorescence polarization competition; peptide titrated against full-length beta-catenin + 5FAM-TCF4(10-53) probe
Description: as §1

EC50	Binder
5 µM	B12
5 µM	B13
